# Patent US20240084039A1
# Numbering of substitutions follows the chain as printed.
# B1: PRO2922 (scFv)
# scFv: DIQMTQSPSSLSASVGDRVTITCQASESIYSSLAWYQQKPGKAPKLLIYLASTLASGVPSRFSGSGSGTDFTLTISSLQPEDFATYYCQSTDYTTSTHRNSFGTGTKVTVLGGGGGSGGGGSGGGGSGGGGSEVQLVESGGGRVQPGGSLRLSCAASGFSFSTTYYMCWVRQAPGKGLEWIGCTNTASSVRTYYATWAKGRFTISRDNSKNTVYLQMNSLRAEDTAVYYCARDMGFADYALNLWGQGTLVTVSS
# B2: PRO2921 (scFv)
# scFv: B1 scFv with R143L, V227T, L249Q
# B3: PRO2920 (scFv)
# scFv: B1 scFv with L249Q
# B4: PRO2919 (scFv)
# scFv: B1 scFv with V227T
# B5: PRO2990 (scFv)
# scFv: B1 scFv with R143S, V227T, L249T
# B6: PRO2924 (scFv)
# scFv: B1 scFv with R143L, L249Q
# B7: PRO2925 (scFv)
# scFv: B1 scFv with R143S, V227T, L249Q
# B8: PRO2918 (scFv)
# scFv: B1 scFv with V227T, L249Q
# B9: PRO2741 (protein)
# chain 1: DIQMTQSPSSLSASVGDRVTITCQASESIYSSLAWYQQKPGKAPKLLIYLASTLASGVPSRFSGSGSGTDFTLTISSLQPEDFATYYCQSTDYTTSTHRNSFGTGTKVTVLGGGGGSGGGGSGGGGSGGGGSEVQLVESGGGRVQPGGSLRLSCAASGFSFSTTYYMCWVRQAPGKGLEWIGCTNTASSVRTYYATWAKGRFTISRDNSKNTVYLQMNSLRAEDTATYYCARDMGFADYALNLWGQGTQVTVSSGGGGSGGGGSEVQLVESGGGRVQPGGSLRLSCAASGFSLSSYDMSWVRQAPGKGLAWIGASYASGPTYYASWAKGRFTISRDNSKNTVYLQMNSLRAEDTATYFCARGGWTGTSHSNIWGQGTQVTVSSGGGSGGGSGGGSGEVQLVESGGGRVQPGGSLRLSCAASGFSLSSYAMNWVRQAPGKCLEWIGHINAGDIAYYATWAKGRFTISRDNSKNTVYLQMNSLRAEDTATYFCARGAGGFSTGPFKLWGQGTQVTVSS
# chain 2: DIQMTQSPSSLSASVGDRVTITCQASESIYSSLAWYQQKPGKAPKLLIYLASTLASGVPSRFSGSGSGTDFTLTISSLQPEDFATYYCQSTDYTTSTHRNSFGTGTKVTVLGGGGGSGGGGSGGGGSGGGGSEVQLVESGGGRVQPGGSLRLSCAASGFSFSTTYYMCWVRQAPGKGLEWIGCTNTASSVRTYYATWAKGRFTISRDNSKNTVYLQMNSLRAEDTATYYCARDMGFADYALNLWGQGTQVTVSSGGGGSGGGGSAFELTQSPSSLSASVGDRVTITCQASESINSRLAWYQQKPGQPPKLLIYDASDLTSGVPSRFSGSGSGTDFTLTISSLQPEDFATYYCQGYGGSSTTTFGCGTKLTVLGGGSGGSDIQMTQSPSSLSASVGDRVTITCQSSQSVFSNNYLAWFQQKPGQSPKRLIYSASTLASGVPSRFSGSGSGTDFTLTISSLQPEDFATYYCLGSYACSSADCYVFGTGTKVTVLG
# B10: PRO2660 (protein)
# chain 1: B9 chain 1 with R143L, T227V, Q249L, R275L, Q378L, R407L, T488V, Q511L
# chain 2: B9 chain 2 with R143L, T227V, Q249L
# B11: PRO2907 (scFv)
# scFv: DIQMTQSPASLSASVGDRVTITCQASQSIGTYLAWYQQKPGKPPKLLIYRAFILASGVPSRFSGSGSGTDFTLTISSLQPEDFATYYCQSNFYSDSTTIGPNAFGTGTKVTVLGGGGGSGGGGSGGGGSGGGGSEVQLVESGGGRVQPGGSLRLSCAASGFSFNSDYWIYWVRQAPGKGLEWIASIYGGSSGNTQYASWAQGRFTISRDNSKNTVYLQMNSLRAEDTAVYFCARGYVDYGGATDLWGQGTLVTVSS
# B12: PRO2906 (scFv)
# scFv: B11 scFv with R145L, V229T, L251Q
# B13: PRO2903 (scFv)
# scFv: B11 scFv with V229T, L251Q
# B14: PRO2926 (scFv)
# scFv: B11 scFv with R145S, V229T, L251Q
# B15: PRO2984 (scFv)
# scFv: B11 scFv with R145S, V229T, L251T
# B16: PRO2905 (scFv)
# scFv: B11 scFv with L251Q
# B17: PRO2909 (scFv)
# scFv: B11 scFv with R145L, L251Q
# Molecular target: pre-existing anti-drug antibodies (ADA) present in human sera
# Test: ELISA pre-existing ADA binding assay, confirmatory setup, test molecule coated, 20 human sera
Binder,% positives of total tested serum samples [%],No of positive serum samples above 30% CCP (serum samples)
B1,10,2
B2,55,11
B3,10,2
B4,5,1
B5,25,5
B6,75,15
B7,25,5
B8,25,5
B9,15,3
B10,30,6
B11,15,3
B12,95,19
B13,30,6
B14,40,8
B15,25,5
B16,20,7
B17,50,10
